In general, Kd refers to the equilibrium constant for the complex coming apart. In general, koff refers to a measure of how fast the partners let go of each other. For orientation: kon means the second-order rate constant of association.

Numbering of substitutions follows the chain as printed.

First the molecules themselves.
B1: IGF1R-5_H3 (VHH)
VHH: QVQLVESGGGLVQPGGSLRLSCAASGRTIDNYAMAWSRQAPGKGLEFVATIDWGDGGTRYANSVKGRFTISRDNSKNTMYLQMNSLRAEDTAVYYCAMARQSRVNLDVARYDYWGQGTLVTVSS
notes: Humanized variant of IGF1R-5, expressed from pSJF2H in E. coli
B2: IGF1R-5_H5 (VHH)
VHH: B1 VHH with G44D, L45R, N77G, Y95S
notes: as for B1
B3: IGF1R-5_H1 (VHH)
VHH: B1 VHH with Q1E, S37V, F47W, A49S, M79L
notes: as for B1
B4: IGF1R-5_H6 (VHH)
VHH: B1 VHH with Q1E, G44D, L45R, A49S, M79L
notes: as for B1
B5: IGF1R-5_H2 (VHH)
VHH: B1 VHH with S37V, F47W
notes: Humanized variant of IGF1R-5, expressed from pSJF2H in E. coli; also called IGF1R H2
B6: IGF1R-5 VHH (VHH)
VHH: QVKLEESGGGLVQAGGSLRLSCAASGRTIDNYAMAWSRQAPGKDREFVATIDWGDGGARYANSVKGRFTISRDNAKGTMYLQMNNLEPEDTAVYSCAMARQSRVNLDVARYDYWGQGTQVTVSS
notes: Llama VHH expressed in E. coli TG1 from vector pSJF2H and purified by IMAC; Monomeric by SEC; also called anti-IGF1R VHH IGF1R-5; wild-type IGF1R-5

T1 sequence (P08069 31-933): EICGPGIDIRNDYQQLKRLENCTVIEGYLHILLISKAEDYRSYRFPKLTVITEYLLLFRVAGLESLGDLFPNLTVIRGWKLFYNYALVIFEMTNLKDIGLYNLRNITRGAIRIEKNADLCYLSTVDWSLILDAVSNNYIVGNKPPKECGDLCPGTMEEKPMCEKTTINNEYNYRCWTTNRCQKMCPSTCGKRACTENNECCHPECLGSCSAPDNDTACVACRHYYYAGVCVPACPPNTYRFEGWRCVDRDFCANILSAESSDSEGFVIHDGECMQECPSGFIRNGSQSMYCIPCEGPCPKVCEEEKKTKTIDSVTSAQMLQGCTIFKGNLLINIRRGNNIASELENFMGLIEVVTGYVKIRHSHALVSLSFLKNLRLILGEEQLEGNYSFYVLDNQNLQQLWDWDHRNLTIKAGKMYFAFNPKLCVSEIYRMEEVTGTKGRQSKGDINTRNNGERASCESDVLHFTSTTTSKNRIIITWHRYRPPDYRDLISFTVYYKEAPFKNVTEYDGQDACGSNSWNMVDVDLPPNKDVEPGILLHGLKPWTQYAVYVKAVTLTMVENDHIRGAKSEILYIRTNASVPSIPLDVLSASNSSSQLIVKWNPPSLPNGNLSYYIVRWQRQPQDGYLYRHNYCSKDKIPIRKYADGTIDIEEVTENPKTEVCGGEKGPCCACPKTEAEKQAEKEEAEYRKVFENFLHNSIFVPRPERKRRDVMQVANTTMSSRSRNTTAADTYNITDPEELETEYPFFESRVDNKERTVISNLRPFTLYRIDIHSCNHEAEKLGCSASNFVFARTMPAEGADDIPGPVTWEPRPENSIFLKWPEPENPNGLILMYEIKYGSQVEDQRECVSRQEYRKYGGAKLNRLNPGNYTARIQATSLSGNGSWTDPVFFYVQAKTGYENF

This assay has as its target T1, recombinant extracellular portion of human IGF1R (IGF1R^933-His fragment) (human, UniProt P08069 31-933).
T1 construct: It holds a furin site (RKRR) between the alpha and beta subunits, so the protein may be cleaved into two disulphide-linked chains; also called h-IGF1R; recombinant human IGF1R; not shown: His tag from vector pCDN4/myc-His
Kind of assay: SPR (BIACORE 3000), human IGF1R immobilized on CM5, VHH injected, 1:1 model, 25 C. On the procedure:
Approximately 3000 Resonance Units (RU) of recombinant human IGF1R (R&D Systems) were immobilized on a Sensor chip CM5. Immobilization was carried out at a concentration of 10 μg/ml in 10 mM acetate at pH4.0 using the amine coupling kit supplied by the manufacturer. The remaining binding sites were blocked with 1M ethanolamine pH 8.5. An ethanolamine blocked surface was used as a reference surface. For the binding studies, analyses were carried out at 25° C. in 10 mM HEPES, pH7.4 containing 150 mM NaCl, 3 mM EDTA and 0.005% surfactant P20 (Polyoxyethylenesorbitan; GE Healthcare). […] Surfaces were regenerated with 10 mM glycine pH 2.0 with a contact time of 24 seconds. Data were analyzed with BIAevaluation 4.1 software (GE Healthcare).
(In general: In SPR one partner is held on a chip, and binding of the other changes the refractive index at the surface.)
On to B1, for which the Kd amounted to 0.8 nM, the koff amounted to 0.00041 s⁻¹ and the kon is 520000 M⁻¹ s⁻¹.

In the case of B2, the Kd came out at 1.6 nM, the koff was determined as 0.0008 s⁻¹ and the kon is 500000 M⁻¹ s⁻¹.

B3: the Kd is 11 nM, the koff amounted to 0.0043 s⁻¹ and the kon came out at 390000 M⁻¹ s⁻¹.

For B4, the Kd amounted to 1.7 nM, the koff was determined as 0.00072 s⁻¹ and the kon stood at 430000 M⁻¹ s⁻¹.

With B5, the Kd turned out to be 7.5 nM, the koff was 0.0029 s⁻¹ and the kon was 380000 M⁻¹ s⁻¹.

Regarding B6, the equilibrium dissociation constant (Kd) is 0.6 nM, the koff was 0.00034 s⁻¹ and the kon was found to be 530000 M⁻¹ s⁻¹.

The values are drawn from patent US20170015748A1 (NATIONAL RESEARCH COUNCIL OF CANADA, published 2017).
